From paper PMC7528653 (Nucleic Acids Research, 2020) come the findings set out here.

Test [1] deals with T1, MSL1 (untagged, subunit of the DCCcore) (Drosophila melanogaster, UniProt P50535 1-1039).
T1 sequence: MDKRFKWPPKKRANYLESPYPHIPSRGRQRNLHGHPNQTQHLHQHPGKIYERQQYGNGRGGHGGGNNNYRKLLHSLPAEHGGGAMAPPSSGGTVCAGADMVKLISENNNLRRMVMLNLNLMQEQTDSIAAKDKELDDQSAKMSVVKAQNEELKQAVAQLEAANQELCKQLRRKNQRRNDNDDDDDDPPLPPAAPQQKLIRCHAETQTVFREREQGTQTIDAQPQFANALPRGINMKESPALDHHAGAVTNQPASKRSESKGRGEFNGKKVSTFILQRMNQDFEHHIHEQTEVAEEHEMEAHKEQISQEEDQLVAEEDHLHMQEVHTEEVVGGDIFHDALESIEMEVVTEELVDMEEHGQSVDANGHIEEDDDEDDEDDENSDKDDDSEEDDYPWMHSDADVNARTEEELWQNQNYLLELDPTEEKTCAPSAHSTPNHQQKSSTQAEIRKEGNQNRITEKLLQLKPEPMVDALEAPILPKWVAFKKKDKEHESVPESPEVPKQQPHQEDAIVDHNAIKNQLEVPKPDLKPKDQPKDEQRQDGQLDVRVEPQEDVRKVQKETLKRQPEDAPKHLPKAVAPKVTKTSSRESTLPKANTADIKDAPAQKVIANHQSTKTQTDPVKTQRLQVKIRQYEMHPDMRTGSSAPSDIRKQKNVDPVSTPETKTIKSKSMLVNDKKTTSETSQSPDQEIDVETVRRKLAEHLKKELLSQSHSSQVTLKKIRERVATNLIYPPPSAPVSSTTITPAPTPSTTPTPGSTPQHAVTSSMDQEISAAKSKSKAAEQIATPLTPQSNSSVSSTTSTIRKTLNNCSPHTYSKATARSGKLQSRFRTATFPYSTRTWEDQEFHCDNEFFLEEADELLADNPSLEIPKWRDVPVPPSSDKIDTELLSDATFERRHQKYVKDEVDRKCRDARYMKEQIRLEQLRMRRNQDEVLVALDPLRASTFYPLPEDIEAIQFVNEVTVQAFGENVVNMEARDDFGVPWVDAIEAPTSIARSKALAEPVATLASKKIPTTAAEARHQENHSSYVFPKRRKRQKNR
Description: co-IP.

For test [2], the target named is MLE-FLAG (maleless DExH helicase, wild-type) (Drosophila melanogaster, UniProt P24785 1-1293). Kind of test: co-IP.

B1: MSL3 with an N-terminal hexahistidine tag (natural protein)
chain: MTELRDETPLFHKGEIVLCYEPDKSKARVLYTSKVLNVFERRNEHGLRFYEYKIHFQGWRPSYDRCVRATVLLKDTEENRQLQRELAEAAKLQIRGDYSYKGTPDKPSAKKKRGGKAAHVEEPIVVPMDTGHLEAEHEMAPTPRAAGNRTRDNSGGKRKEKPPSGDGRLKGNRGRQTETFYNNAINDVSVYNHVPQEDRIMMRVSERLRELIEYDRNMIKVLGKQHALPARVPIVTIMENFVKQQAVELAISIKQDSSRARNTQSRNARMEREYDRVMSTVCMLKEVVDGLRIYFEFHVDDHLLYTEEKEYVHNYLTDDNMRNCSLILNKSYEYINPSGDTELIGLDGTPVVEGSGDTNGQIGVINIGGPEYEKQLQKCLLYIVTASGKNTAQAYERTSPYTAAYKLPVEMRGFLNETFKWRLLSAESPPEKSMVFGAPHLVRLMIKMPMFLNASPISNKKLEDLLPHLDAFINYLENHREWFDRENFVNSTALPQEDLQRELLDSLDGIAA
In the case of B1, in test [1], the binding result was “binds”.

B2: DCC DNA-binding module (MSL2-FLAG and MSL1 Δ865-1039) (complex)
chain 1: MAQTAYLKVTRIAMRSASNLSKRRVEELNSGLGELRQLLSCVVCCQLLVDPYSPKGKRCQHNVCRLCLRGKKHLFPSCTQCEGCSDFKTYEENRMMAAQLLCYKTLCVHLLHSALFGELAGMRPQVARELVPRIKLPPKTTQEFIREGSNISDTFDIFLPQPDLPFLKDMPTSLPAETPPTSAVTTPELPYDHHLNISDIEAEAAATAEQGHFSPLPLLPTGSRMGMLSHAGQIVIATESSESGFMDQAWTDQVDLSGTVSVSKYTNSGNNFAVSYVMPTSATTKFDPQELQIGQVVQMADSTQLAVLAAVEETVETSTQLTVLSTTVEETVETSTQLEVLTSAEEPNEISDQLANLQVEESDEALVEETVEEAEGTSIPSEVVAEHMEEDQHLDVHTSQSPTQTEMEEAVEEHVATKTQLGHVQTELQDAESLQKDFEDAKAAAEEAKEKEKDLHAISAELQKEDSDEPTLKRKRTRTLKASQAAKIEPVPSEVKTKVQSGKGALRRIRGKDKEEKVKPPKPKCRCGISGSSNTLTTCRNSRCPCYKSYNSCAGCHCVCCKNPHKEDYVESDEDDDLEDFEMPKDVPEPMTQSEEPVVAEPRQEENSMAPPDSSAPISLVPLNNLQQSQHPLVLVQNEKGEYQGFNIFQGSKPLDPVTVGFTIRVQLQHTDGFGSLPQYAYIMPTIDPPNPPAPSLSPPPPPAPDREVIEPPAKKFRTSRTRRGRANFSALDTVDELVSGGSRSNSAAGDRSSATDNAHSLFEEIMSGSDDL
chain 2: MDKRFKWPPKKRANYLESPYPHIPSRGRQRNLHGHPNQTQHLHQHPGKIYERQQYGNGRGGHGGGNNNYRKLLHSLPAEHGGGAMAPPSSGGTVCAGADMVKLISENNNLRRMVMLNLNLMQEQTDSIAAKDKELDDQSAKMSVVKAQNEELKQAVAQLEAANQELCKQLRRKNQRRNDNDDDDDDPPLPPAAPQQKLIRCHAETQTVFREREQGTQTIDAQPQFANALPRGINMKESPALDHHAGAVTNQPASKRSESKGRGEFNGKKVSTFILQRMNQDFEHHIHEQTEVAEEHEMEAHKEQISQEEDQLVAEEDHLHMQEVHTEEVVGGDIFHDALESIEMEVVTEELVDMEEHGQSVDANGHIEEDDDEDDEDDENSDKDDDSEEDDYPWMHSDADVNARTEEELWQNQNYLLELDPTEEKTCAPSAHSTPNHQQKSSTQAEIRKEGNQNRITEKLLQLKPEPMVDALEAPILPKWVAFKKKDKEHESVPESPEVPKQQPHQEDAIVDHNAIKNQLEVPKPDLKPKDQPKDEQRQDGQLDVRVEPQEDVRKVQKETLKRQPEDAPKHLPKAVAPKVTKTSSRESTLPKANTADIKDAPAQKVIANHQSTKTQTDPVKTQRLQVKIRQYEMHPDMRTGSSAPSDIRKQKNVDPVSTPETKTIKSKSMLVNDKKTTSETSQSPDQEIDVETVRRKLAEHLKKELLSQSHSSQVTLKKIRERVATNLIYPPPSAPVSSTTITPAPTPSTTPTPGSTPQHAVTSSMDQEISAAKSKSKAAEQIATPLTPQSNSSVSSTTSTIRKTLNNCSPHTYSKATARSGKLQSRFRTATFPYSTRTWEDQEFHCDNEFFLEEADELLADNP
As to B2, the binding result in test [2] is “binds”.
